Square brackets hold non-standard residues; d marks the D form. Primed or numbered codes have the meaning given here. Ends that are not written are not given here. Nal″ = Z is Nal (naphthylalanine; Nal = Z in the sequences is Nal; Aib = CC(C)(N)C(=O)O
Experiments:
[1] = Circular dichroism: degree of helicity; format: physicochemical; conditions: for He (%) TFE / He (%) free / He (%) mics / He (%) SUVs: percent helicity, 37° C.; for He (%) TFE: 5 μM peptide, 90% vol TFE; for He (%) free: unbound peptide, 5 μM in 5 mM phosphate buffer, pH 7.4; for He (%) mics: peptide-micelle complexes (1-myristoyl-2-hydroxy-sn-glycero-3-phosphatidyl choline, Ri=100); for He (%) SUVs: peptide-SUV complexes (20:1 EPC:Chol., Ri=50)
Method: Far UV circular dichroism spectra were recorded between 190 and 260 nm (in 0.5 nm or 0.2 nm increments) with a AVIV62DS spectrometer (AVIV Associates, Lakewood, N.J., USA) equipped with a thermoelectric cell holder and sample changer. The instrument was calibrated with (+)-10-[…]. Between one and three scans were collected for each sample, using 10 cm, 5 cm, 1 cm and 0.1 cm path length quartz Suprasil cells, respectively, for peptide concentrations of 10^−7 M to 10^−4 M. The bandwidth was fixed at 1.5 nm and the scan speed to 1s per wavelength step. The reported data are the mean of at least 2 or 3 independent measurements.
After background subtraction, spectra were converted to molar ellipticity (θ) per residue in […]. The peptide concentration was determined by amino acid analysis and also by absorption spectrometry on a Perkin Elmer Lambda 17 UV/Visible spectrophotometer when the peptide contained a chromophore (tryptophan, dansyl, naphthylalanine).
CD spectra were obtained with free, unbound peptide (5 μM in 5 mM phosphate buffer, pH 7.4); with peptide-SUV complexes (20:1 EPC:Chol., Ri=50); with peptide-micelle complexes (1-myristoyl-2-hydroxy-sn-glycero-3-phosphatidyl choline, Ri=100); and with free, unbound peptide in the presence of 2,2,2-trifluoroethanol (TFE) (5 μM peptide, 90% vol TFE).
The SUVs were obtained by dispersing the lipids (10 mM, 20:1 EPC:Chol., Avanti Polar Lipids, AL) in phosphate buffer (5 mM, pH 7.4) with bubbling N2 for 5 min., followed by sonication (1.5 hr.) in a bath sonicator. The homogeneity of the preparation was checked by FPLC.
The micelles were obtained by dispersing the lipid (6 mM 1-myristoyl-2-hydroxy-sn-glycero-3-phosphatidyl choline, Avanti Polar Lipids, AL) in phosphate buffer (5 mM, pH 7.4) with bubbling N2 for 5 min., followed by vortexing.
To obtain the peptide-SUV complexes, SUVs were added to the peptide (5 μM in 5 mM phosphate buffer, pH 7.4) at a phospholipid-peptide molar ratio (Ri) of […].
To obtain the peptide-micelle complexes, micelles were added to the peptide (5 μM in 5 mM phosphate buffer, pH 7.4) at a Ri of 100.
All spectra were recorded at 37° C. The stability of peptide 210 (SEQ ID NO:210) as a function of temperature (both free in buffer and in micelles) was determined by recording spectra at a series of different temperatures.
The degree of helicity of the peptides in the various conditions was determined from the mean residue ellipticity at 222 nm (Chen et al., 1974, Biochemistry 13:3350-3359) or by comparing the CD spectra obtained to reference spectra available on databases (16 helical reference spectra from Provencher & Glockner, 1981, Biochemistry 20:33-37; denatured protein reference spectra from Venyaminov et al., 1993, Anal. Biochem. 214:17-24) using the CONTIN curve-fitting algorithm version 2DP, CD-1 pack (August 1982) (Provencher, 1982, Comput. Phys. Commun. 27:213-227, 229-242). Acceptable fit was determined using the statistical analysis methodology provided by the CONTIN algorithm. The error of all methods was ±5% helicity.

[2] = Lipid binding by fluorescence spectroscopy; conditions: for I/Io: peptide 2 μM, 37° C.
Method: The lipid binding properties of the peptides synthesized in Section 6, supra, were tested by fluorescence measurements with labeled peptides, in the present case tryptophan (Trp or W) or naphthylalanine (Nal). The fluorescence spectra were recorded on a Fluoromax from Spex (Jobin-Yvon) equipped with a Xenon lamp of 150 W, two monochromators (excitation and emission), a photomultiplier R-928 for detection sensitive in the red up to 850 nm and a thermoelectric magnetic stirred cell holder. Quartz Suprasil cuvettes were used for measurements in the micromolar concentration range. A device of variable slits (from 0.4 to 5 nm) allows modulation of the incident and emitted intensities according to the concentration of peptide used. The reported values are in general the average of between 2 to 4 spectra. The peptide concentration is determined by absorption spectrometry on a Philips PU 8800 using the absorption band of the Trp (∈280 nm=5,550 M^−1 cm^−1 in Tris buffer) or the Nal (∈224 nm=92,770 M^−1 cm^−1 in methanol).
Fluorescence spectra of the peptides were recorded between 290 nm and 450 nm in Tris-HCl buffer (20 mM, pH=7.5), in the presence and absence of lipidic vesicles. The small unilamellar vesicles were formed after rehydration in buffer of the lyophilized phospholipids, dispersion and tip sonification under a N2 stream. The lipids used were either Egg PC/Chol. (20:1) or POPC/Chol. (20:1). The spectra were recorded at a peptide concentration of 2 μM and at a temperature of 37° C. The fluorescence reference standard in the case of Trp was N-acetyltryptophanylamide (NATA).
Lipid binding studies were done through progressive lipidic vesicle addition to the peptide in solution at 2 μM (slits:5 nm in excitation and 1.5 nm in emission). Dilution effects were taken into account for the fluorescence intensity determination. The lipid concentrations were varied from 10 to 600 μM and the molar ratio of lipid to peptide (Ri) was varied from 5 to 300. The wavelength of excitation was set at 280 nm for both Trp and Nal.
The data were directly recorded and treated by an IBM-PC linked to the spectrofluorimeter through the DM3000F software from Spex. The spectra were corrected by substraction of the solvent contribution and by application of a coefficient given by the constructor taking into account the variation of the photomultiplier response versus the wavelength.
The fluorescence spectra of the peptides were characterized by the wavelength at their maximum of fluorescence emission and by their quantum yield compared to NATA in the case of peptides labeled with a tryptophan. The process of binding to lipids was analyzed by calculating the shift of the wavelength at the maximum of fluorescence emission, (λmax), and the variation of the relative fluorescence intensity of emission versus the lipid concentration. The relative fluorescence intensity is defined as the following ratio: (I-I0)λmax/I0λmax. I and I0 are both measured at the (λmax) corresponding to the initial free state of the peptide i.e., without lipids. I is the intensity at a defined lipid to peptide ratio and I0 is the same parameter measured in absence of lipids. The absence of these variations is relevant to the absence of interactions of the peptides with the lipids.

[3] = EPC/Chol (20:1) small unilamellar vesicles

**Q.** Which “He (%) TFE” value [1] does the source give for .klkgklaellenllerfldlvp [compound 107] here?
**A.** 77%

**Q.** With “EWLEAFYKKVLEKLKELF* (Ac-EWLEAFYKKVLEKLKELF-NH2) [compound 239, reference compound]” as the substance, how does the “He (%) free” value [1] read?
**A.** 44%

**Q.** And the “He (%) mics” value [1]?
**A.** 49%

**Q.** With GVLELFENLLERLLDALQKKLK [compound 145] as the substance, how does the “He (%) TFE” value [1] read?
**A.** 58%

**Q.** What about the “He (%) free” value [1] of the same substance?
**A.** 55%

**Q.** What about the “He (%) mics” value [1] of the same substance?
**A.** 51%

**Q.** For PVLDLFRELLEELKQKLK [peptide 210], which “stability of the α-helical structure as a function of temperature” value ([1]; temperature range of 5°-45° C., data not shown) is on record?
**A.** completely stable

**Q.** With “PVLDLFRELLNELLEAZKQKLK (PVLDLFRELLNELLEA[Nal″]KQKLK) [peptide 10]” as the substance, how does the “He (%) TFE” value [1] read?
**A.** 71%

**Q.** And the “He (%) free” value [1]?
**A.** 60%

**Q.** And the “He (%) SUVs” value [1]?
**A.** 70%

**Q.** And the “He (%) mics” value [1]?
**A.** 87%

**Q.** Which results are given for “PVLDLFRELLNELZEALKQKLK (PVLDLFRELLNEL[Nal]EALKQKLK) [compound 27]”?
**A.** He (%) TFE [1]: 81%; He (%) free [1]: 72%; He (%) SUVs [1]: 82%; He (%) mics [1]: 92%

**Q.** With “PVLDLFRELWEELKQKLK* (Ac-PVLDLFRELWEELKQKLK-NH2) [peptide 199]” as the substance, how does the “lipid binding (burying of the tryptophan, fluorescence intensity exaltation)” value [2, 3] read?
**A.** binds very effectively

**Q.** And the “lipid to peptide molar ratio at which the burying of the tryptophan residue is maximal” value [2, 3]?
**A.** about 100

**Q.** And the I/Io ([2]; Lipid:Peptide Molar Ratio (Ri) 0)?
**A.** 0

**Q.** And the “λmax (nm)” value ([2]; Ri 5)?
**A.** 344 nm

**Q.** And the I/Io ([2]; Ri 5)?
**A.** 8

**Q.** What about the “λmax (nm)” value ([2]; Ri 10) of the same substance?
**A.** 339 nm

**Q.** What about the I/Io ([2]; Ri 10) of the same substance?
**A.** 8

**Q.** And the “λmax (nm)” value ([2]; Ri 30)?
**A.** 328 nm

**Q.** And the I/Io ([2]; Ri 30)?
**A.** 18

**Q.** What about the I/Io ([2]; Ri 60) of the same substance?
**A.** 22

**Q.** What about the “λmax (nm)” value ([2]; Ri 100) of the same substance?
**A.** 326 nm

**Q.** And the I/Io ([2]; Ri 100)?
**A.** 27

**Q.** What about the “λmax (nm)” value ([2]; Ri 200) of the same substance?
**A.** 325 nm

**Q.** What about the I/Io ([2]; Ri 200) of the same substance?
**A.** 41

**Q.** And the “λmax (nm)” value ([2]; maximum of tryptophan fluorescence emission, Ri 0 (in buffer, no lipid), 2 μM)?
**A.** 348 nm

**Q.** Which “He (%) SUVs” value [1] does the source give for “PVLDLFRWLLNEXLEALKQKLK (PVLDLFRWLLNE[Aib]LEALKQKLK) [compound 108]” here?
**A.** 54%

**Q.** With “PVLDZFRELLNELLEALKQKLK (PVLD[Nal]FRELLNELLEALKQKLK) [compound 34]” as the substance, how does the “He (%) TFE” value [1] read?
**A.** 62%

**Q.** What about the “He (%) free” value [1] of the same substance?
**A.** 58%

**Q.** And the “He (%) SUVs” value [1]?
**A.** 68%

**Q.** What about the “He (%) mics” value [1] of the same substance?
**A.** 67%

**Q.** For “pVLELFENLLERLLDALQKKLK ([dP]VLELFENLLERLLDALQKKLK) [compound 144]”, which “He (%) TFE” value [1] is on record?
**A.** 95%

**Q.** What about the “He (%) free” value [1] of the same substance?
**A.** 89%

**Q.** And the “He (%) mics” value [1]?
**A.** 88%

**Q.** Which “He (%) TFE” value [1] does the source give for “pllellkellqellealkqklk ([dP][dL][dL][dE][dL][dL][dK][dE][dL][dL][dQ][dE][dL][dL][dE][dA][dL][dK][dQ][dK][dL][dK]) [compound 87]” here?
**A.** 100%

**Q.** And the “He (%) free” value [1]?
**A.** 100%

**Q.** Which “He (%) free” value [1] does the source give for “pvldefreklneXlealkqklk ([dP][dV][dL][dD][dE][dF][dR][dE][dK][dL][dN][dE][Aib][dL][dE][dA][dL][dK][dQ][dK][dL][dK]) [compound 44]” here?
**A.** 20%

**Q.** What about the “He (%) mics” value [1] of the same substance?
**A.** 86%

**Q.** With “pvldlfrellneXlealkqklk ([dP][dV][dL][dD][dL][dF][dR][dE][dL][dL][dN][dE][Aib][dL][dE][dA][dL][dK][dQ][dK][dL][dK]) [compound 96]” as the substance, how does the “He (%) TFE” value [1] read?
**A.** 81%

**Q.** And the “He (%) free” value [1]?
**A.** 52%

**Q.** What about the “He (%) SUVs” value [1] of the same substance?
**A.** 63%

**Q.** What about the “He (%) mics” value [1] of the same substance?
**A.** 85%

**Q.** For pvldlfrellnellealkqklk [compound 100], which “He (%) TFE” value [1] is on record?
**A.** 98%

**Q.** And the “He (%) free” value [1]?
**A.** 83%

**Q.** What about the “He (%) mics” value [1] of the same substance?
**A.** 92%

From patent publication US6734169B2, “Apolipoprotein A-I agonists and their use to treat dyslipidemic disorders” (priority 1997, dated 2004)
